The values that follow come from the nanobody polyreactivity screen of Harvey et al. (2022).

This data set is described as follows: yeast display, Sf9 membrane polyspecificity reagent, FACS + sequencing; frameworks hold sequencing errors. Put shortly: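 Nanobodies came from a synthetic yeast display library in Saccharomyces cerevisiae BJ5465, induced with galactose for 36–48 hours and stained for 1 hour at 4 °C with 10% biotinylated, detergent-solubilized Sf9 membrane reagent. Cells were enriched on streptavidin microbeads and then FACS-sorted, with low and high (top ~1%) gates set on anti-HA fluorescence for expression and streptavidin fluorescence for reagent binding. Each polyreactivity label reflects the gate a clone came from. Genes were amplified by colony PCR, sequenced by MiSeq 2 × 250 and filtered by CDR length.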
Take “QVQLVESGGRLVQAGGSLRLSCAPSGFIFGYYAMGWYRQAPGKERELVAAISPSGGRTYYADSVKGRFTISRDNAKITVFLQMNSLKPEDTAVYYCAAEYAYSLDPEEDYWGQGTQVTVSS”: the “polyreactivity (PSR sort gate)” value was “high polyreactivity”.
For “QVQLVESGGGLVQAGGSLRLSCAASGRTFFGYAMGWYRQAPGKERELVAAISRGGGRTYYADSVKGRFTISRDNAKNTVYLQMNSLKPEDTAVYYCNAVTFSFYLYDWGQGTQVTVSS”, the “polyreactivity (PSR sort gate)” value is listed as “high polyreactivity”.
Under “QVQLVESGGGLVQAGGSLRLSCAASGFIFLGNAMGWYRQAPGKERELVAAISSGGSTYADSVKGRFTISRDNAKNTVYLQMNSLKPEDTAVNYCAVDRAFRAQNYHEYDYWGQGTQVTVSS” stands “low polyreactivity”; under “QVQLVESGGGLVQAGGSLRLSCAASGSIFGRYAMGLYRQAPGKERELVATISRTGGSTNYADSVKGRFTISRDNAKNTVSLQMNSLKPEDTAVYYCNAASVYANYYTYVDYYTEGFYYWGQGTQVTVSS”, “low polyreactivity”.
Under “QVQLVESGGGLVQAGGSLRLICAASGLTFYYYAMGWYRQAPGKERELVAASSTRGTSTYYADSVKGRFTISRDNSKNTVYLQMNSLKPEDTAVYYCAADSYPCGTGGDYWGQGTQVTVSS” stands “high polyreactivity”; under “QVQLVESGGGLVQAGGSLSLICAASGRIYPKYAMGWYRQAPGKERELVAGITKRVGSTYYADSVKGRFTISRDNAKHTVYLQMTSLKPEDTAGYYCAKRWVSGPHGYWGQGTQVTVSS”, “low polyreactivity”.
For “QVQLVESGGGLVQAGGSLRLSCAASGSILNSYAMGWYRQAPGKERELVATITSGSRTNYADSVKGRFTISRDNAKNTVYLQMNSLKPEDTAVYYCATEYQRRHYIGHNYWGQGTQVTVSS”, the “polyreactivity (PSR sort gate)” value was “low polyreactivity”.
With “QVQLVESGGALVQAGGSLRLSCAASGFTFAWYAMGWYRQAPGKERELVAAISRSGGSTYYADSVKGRFTISRDNAKNTVYLQMNSLKPEDTAVYYCATRVYSYRKAGWYDYWGQGTQVTVSS”, the “polyreactivity (PSR sort gate)” value is “high polyreactivity”.
The value for “QVQLEESGGGLVQAGGSLRLSCAASGRTFRRNAMGWYRQAPGKERELVADISNGDSTKYADSVKGRFTISRDNAKNTVYLQMHSLIPEDTAVYYCNAQRYRVVVYISHGWQTRNYWGQGTQVTVSS” was “low polyreactivity”; that for “QVLLVESGGGLVQSGRSLRLSCAASGLIFSRYAMGWYRPAPGKERELVAAITSGTSTYYADSVKGRFTISRDNAKNTVYLQLNSLIPEDTAVYYCAARWLTFNARYYPYYYWGQGTQVTVSS” was “high polyreactivity”.
With “QLQLVESGGGLVQAGGSLRLSCAASVFTLRGYAMGWYRQATCKERELVADISGGGSTDYADSVKVRFTISRDNAKNTVYLQMNSLKPEDTAVYYCAAYGYLWWEMDYWGQGTQVTVSS”, the “polyreactivity (PSR sort gate)” value is “high polyreactivity”.
Under “QVQLVESGGGLVQAGGSLRLSCAASGSLFRINAMGWYRQAPGKERELVAAITGRVGSTYYADTVKGRFTISRDNAQNTVYLQMNSLKPEDTAVYYCAARAGSSRYTREYRYDYWGQGTQVTVSS” stands “high polyreactivity”.
Turning to “QVQLVESGGGLVQAGGSLRLSCAASGFTFYRNAMRWYRQAPGKERELVAAISRGGRTYYADSVKGRFTISRDNAKNTVYLQMNSLKPEDTAVYYCARKYTRKIPASDYWGQGTQVTVSS”, the “polyreactivity (PSR sort gate)” value is “high polyreactivity”.
The value for “QGQLVESGGGLVQAGGSLRFSCAASGSTFVWYAMGWYRQAPGKERELVAGINRSGGSRYYADSVKGRFTILRDNAKNTVYLQMNSLKPEDTAVYYCAARGKRFRNSRIAYDYWGKGTQVTVSS” was “high polyreactivity”.
Under “QVQLVESGGGLVQAGGSLRLSCAASGGIFTGNAMGWYRQAPGKERELVAAINRRTGSTYYADSVKGRFTISRDNAKNTVYLQMNSLKPEDTAVYYCATRRYRSYTYDYWGQGTQVTVSS” stands “high polyreactivity”; under “QVQLVESGGGLVQAGGSLRLSCAASGFTFLRYAMGWYRQAPGKERELVAGITSRGASTYYADSVKGRFTISRDNAKTTVYLQINSLKPEDTAVYYCAADGSHTRYRYDYWGQGTQVTVSS”, “high polyreactivity”; under “QVQLVESGGGLVQAGGSLRLSCAASGRTFGYNAMGWYRQAPGKERELVATITSSDSTYYADSVKGRFTISRDNAKNTVYLQMNSLKPEDTAVYYCAADDVGWGYYVYSYPYDYWGQGTQVTVSS”, “low polyreactivity”.
In the case of “QVQLVESGGGLVQAGGSLRLSCAASGIIFPGYAMGWYRQAPGKERELVAAISSSGSSTYYADSVKGRFTISRDNGKNTVYLQMNSLKPEDTAVYYCAAVRYGLRRMDYWGQGTQVTVSS”, the “polyreactivity (PSR sort gate)” value is on record as “high polyreactivity”.
The value for “QVQLVESGGGLVQAGGSLRLSCAASGFIFVYNDMGWYRQAPGKERELVASISNGDNTNYADSVKGRFTISRDNAKNTVYLQMNSLKPEDTAVYYCAARGTIYVLGVPARPVPDGDYWGQGTQVTVSS” was “low polyreactivity”.
Under “QVQHVESAGGLVQAAGSLRLSCAASGLSYSRYAMGWYRQAPGKERELVAAITWSGSSTYYADSVKGRFTISRDNAKNTVYLQMNSLKPEDTAVYYCAGRYGYSRGPYYRSDYWGQGTQVTVSS” stands “high polyreactivity”; under “QVQLVETGGGLVQAGGSLRLSSAASGFTFGTYAMGWYRQAPGKERELVAAITGSGVRTYYADSVKGRFTISRDIAKYTVFLQMNSLKPEDTAVYYCAADYVVPLAFWTFRFDYWGQGTQVTVSS”, “low polyreactivity”.
For “QVQLVESGGGLVQAGGSLRLSCAASGRTFLYNAMGWYREAPGTERELVAAISTNGSSTYYADSVKGRFTISRDNAKNTVYLQMNSLKPEDTAVYYCAAQPPLDYEFPYRYGYWGQGTQVTVSS”, the “polyreactivity (PSR sort gate)” value is “low polyreactivity”.
The value for “QVQLVESGGGLVQAGGSLRLSCAASGRIFYVYAMGGYRQAPGKERELVAGITSGGSTTYADSVKGRFTISRDNAKNTVYLQMNSLKPEDTAVYYCAALQRQSYWTYGYWGHGTQVTVSS” was “high polyreactivity”; that for “QVQLVESGGGLVQAGGSLRLSCAASGSNFLRNAMGWYRQAPGKERELVAAIRWNAGSTYYADSVKGRFTISRDNAKNTVYLQMNSLKPEDTAVYFCAADGYYGRGYWIRTLKFDYWGQGTQVTVSS” was “high polyreactivity”.
On to “QVQHVESGGGLVQAGGSLRLSCAASGYIFVRNAMGWYRQAPGKERELVAAISGSGGSTYYADSVKGRFTISRDNAKNTVYLQMNSLKPEDTAVYYCAADYATVTWRGIAYDYWGQGTQVTVSS”, for which the “polyreactivity (PSR sort gate)” value is recorded as “low polyreactivity”.
For “QVQLVESGGGLVQAGGSLRLSCAASGFIFSTNFMGWYRQAPGKERELVADINTGGSTSYADSVKGRFTISRDNAKNTVYLQMNSLKPEDTAVYYCAAVLQYYYLSTDDPYDYWGQGTQVTVSS”, the “polyreactivity (PSR sort gate)” value is on record as “low polyreactivity”.
The value for “QGQLVESGGGFVQEGGSLRLSCAASRSIFRLYAMGWYRQAPGKEREFVARLRWRGGSTNYADSVKGRFTISRDNAKKTVYLQMNSLKPEDTAVYYCNARGRSGGGRYDYWGQGTQVTVSS” was “high polyreactivity”; that for “QVQLVESGGGLVQAGGSLRLSCAASGFTFQRYAMGWYRQAPGKERELVAAISGSGGSTYYADSVKGRFTISRDNAKNTVYLQMNSLKPEDTAVYYCAARYKYKDLYRYDYWGQGTQVTVSS” was “high polyreactivity”; that for “QFQLVESGGGLDQAGGSLRLSCAASGLTFYGYAMGWYRQAPGKERELVAAITWGGGSTYYADSVKGRFTISRDKAKNTVYLQMNSLKPEETEVYYCNADYYLPAIRYDYWGQGTKVTVSS” was “low polyreactivity”.
On to “QVQLVESGGGLVQAGGRLRLSCAASGSIFFHYAMGWYRQAPGKERERVAAITWDGGSTYYADSVKGRFTISRDNAKNTVYLQMNSLKPEDTAVYYCNADQDLSTDEDEYWGQGTQVTVLS”, for which the “polyreactivity (PSR sort gate)” value is reported as “low polyreactivity”.
The value for “QVQLVESGGGLVQAGGSLRLSCAASGSIFQSNAMGWYRQAPAKESELVAAISSSGGRTYYADSVKGRFTISRDNAKNTVYFQMNSLKPEDTAVYYCAALGYPDGGWGLGTQVTVSS” was “low polyreactivity”.
The value for “QVQLEESGGGLVQAGGSLRLSCAASGRTFWLYAMGRYRQAPGKEREFVASISSSGDSTYYADSVKGRFTISRDNAKNTVYLQMNSLKPEDTAVYDCAARPSRRYLRNGLDYWGQGTQVTVSS” was “high polyreactivity”.
In the case of “QVQLVESGGGVVQAGGSLRLSCAASGSPFGFYTMGGYRQAPGKERELVAAISWSTGRTYYADSVKGRFTISRDKAKNTVDLQMNSLKPEDTAVYYCAADYYWKLFHEPPAVYDYDYWGQGTQVTVSS”, the “polyreactivity (PSR sort gate)” value is given as “low polyreactivity”.
Under “QVHLVESGGGLVQAGGSLRLSFAASGLIFSAYAMAWYRQAPGKERELVAAISSSGGRTYYADSVKGRFTISRDNAKNTVYLQMNSLKPEDTAVYYGNAASKNSGRYAYQNYDYWGQGTQVTVSS” stands “high polyreactivity”.
Under “QVQHVESGGGLFQAGGSLRLSCAASGQNFRPYALGWDRQAPGKERELVAAIRWSDDSTYFAVSVKGRFTILRDNAKNTVYLQLNSLKPEDTAVYYCNARWWYPTYYYWGQGSQVTVSS” stands “high polyreactivity”; under “QVQLVESGGGLVQAGGSLRLSCAASGYIFLGNAMGWYRQAPGKERELVAAINSSGGSTYYADSVKGRFTISRDNAKNTVYLQMNSLKPEDTAVYYCATSDRDGIYVVPHMDYWGQGTQVTVSS”, “low polyreactivity”; under “QVQLVESGGGLVQAGGSLRLSCAASGSTFRSNAMGWYRQAPGKERELVAAISRRGGSTYYADSVKGRFTISRDNAKNTVDLQMNSLKPEDTAVYYCAKGYIGFPISSFLYDYWGQGTQVTVSS”, “high polyreactivity”.
The value for “QVQLVESGGGVVQAGGSLRLSCAGSGFTFIYYAMGWYRQAPGTERELVAAITTSRGRTDSADSVKGRVTISRDNAKNTVYLQMNSLKPEDTAVYYCNAVVYTKYYFIPWYPYDYWGHGTQVTVSS” was “high polyreactivity”.
As to “QVQLVESGGGLVQAGGSLRISCAASGRTLFGYAMGWYRQAPGKERELVAAITYGATSTYADSVKGRFTISRDNAKNTVYLQMNSLKPEDTAVYYCNAYTPTDGFDYWGQGTQVTVSS”, the “polyreactivity (PSR sort gate)” value was “low polyreactivity”.
The value for “QVQLVESGGGLVKAGGSLRLSCAASGRTFALYAMGWYRLAPGKERELVAGITFRGGSTYYADSVKGRFRISRDNAKNTVYLQMNSLKPEDTAVYYCAAERWRWYYSWTMDYWGQGTQVTVSS” was “high polyreactivity”.
